According to patent publication US6881404:

Molecular target: T1, P-selectin glycoprotein ligand-1 (UniProt Q14242)
T1 sequence: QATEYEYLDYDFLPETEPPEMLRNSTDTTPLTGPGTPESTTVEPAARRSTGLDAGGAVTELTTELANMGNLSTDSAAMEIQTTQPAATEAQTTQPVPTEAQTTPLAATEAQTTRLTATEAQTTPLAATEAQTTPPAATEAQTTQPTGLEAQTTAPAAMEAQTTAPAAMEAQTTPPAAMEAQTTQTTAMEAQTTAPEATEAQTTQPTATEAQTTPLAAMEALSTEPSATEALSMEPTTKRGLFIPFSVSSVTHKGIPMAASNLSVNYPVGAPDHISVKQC

## mocarhagin purified from the venom of the Mozambiquan spitting cobra, Naja mossambica mossambica
  proteolytic cleavage of PSGL-1: Mocarhagin cleaves a ten amino acid peptide from the mature N-terminus of PSGL-1 and abolishes the ability of PSGL-1 to bind P-selectin
